{"source": "IntAct's records for PubMed 18264113", "parents": {"B1": {"name": "Histone-lysine N-methyltransferase EHMT2 (Mus musculus), Q9Z148-1 (parent)", "chain": "MRGLPRGRGLMRARGRGRAAPTGGRGRGRGGAHRGRGRPRSLLSLPRAQASWAPQLPAGLTGPPVPCLPSQGEAPAEMGALLLEKEPRGAAERVHSSLGDTPQSEETLPKANPDSLEPAGPSSPASVTVTVGDEGADTPVGAASLIGDEPESLEGDGGRIVLGHATKSFPSSPSKGGACPSRAKMSMTGAGKSPPSVQSLAMRLLSMPGAQGAATAGPEPSPATTAAQEGQPKVHRARKTMSKPSNGQPPIPEKRPPEVQHFRMSDDMHLGKVTSDVAKRRKLNSGSLSEDLGSAGGSGDIILEKGEPRPLEEWETVVGDDFSLYYDAYSVDERVDSDSKSEVEALAEQLSEEEEEEEEEEEEEEEEEEEEEEEEEDEESGNQSDRSGSSGRRKAKKKWRKDSPWVKPSRKRRKREPPRAKEPRGVNGVGSSGPSEYMEVPLGSLELPSEGTLSPNHAGVSNDTSSLETERGFEELPLCSCRMEAPKIDRISERAGHKCMATESVDGELLGCNAAILKRETMRPSSRVALMVLCEAHRARMVKHHCCPGCGYFCTAGTFLECHPDFRVAHRFHKACVSQLNGMVFCPHCGEDASEAQEVTIPRGDGGTPPIGTAAPALPPLAHDAPGRADTSQPSARMRGHGEPRRPPCDPLADTIDSSGPSLTLPNGGCLSAVGLPPGPGREALEKALVIQESERRKKLRFHPRQLYLSVKQGELQKVILMLLDNLDPNFQSDQQSKRTPLHAAAQKGSVEICHVLLQAGANINAVDKQQRTPLMEAVVNNHLEVARYMVQLGGCVYSKEEDGSTCLHHAAKIGNLEMVSLLLSTGQVDVNAQDSGGWTPIIWAAEHKHIDVIRMLLTRGADVTLTDNEENICLHWASFTGSAAIAEVLLNAQCDLHAVNYHGDTPLHIAARESYHDCVLLFLSRGANPELRNKEGDTAWDLTPERSDVWFALQLNRKLRLGVGNRAVRTEKIICRDVARGYENVPIPCVNGVDGEPCPEDYKYISENCETSTMNIDRNITHLQHCTCVDDCSSSNCLCGQLSIRCWYDKDGRLLQEFNKIEPPLIFECNQACSCWRSCKNRVVQSGIKVRLQLYRTAKMGWGVRALQTIPQGTFICEYVGELISDAEADVREDDSYLFDLDNKDGEVYCIDARYYGNISRFINHLCDPNIIPVRVFMLHQDLRFPRIAFFSSRDIRTGEELGFDYGDRFWDIKSKYFTCQCGSEKCKHSAEAIALEQSRLARLDPHPELLPDLSSLPPINT"}}, "data": [{"variants_of": "B1", "conditions": "with gfi1_human GFI1, Q99684", "values": [{"variant": "E847A", "effect of a mutation on the interaction": "decreasing interaction"}, {"variant": "W839A", "effect of a mutation on the interaction": "decreasing interaction"}]}, {"variants_of": "B1", "conditions": "with ncoa2_mouse Ncoa2, Q61026", "values": [{"variant": "E847A", "effect of a mutation on the interaction": "decreasing interaction"}]}]}
